In patent publication US20250155441A1:

Assays:
[1] = biological target: α-fetoprotein (AFP-L1), the non-fucosylated variant of AFP that should not react with Lens culinaris agglutinin A (human) (UniProt P02771); test: Elecsys ECL immunoassay, biotinylated protein 7 nM without pretreatment, antibody 1 µg/mL, ruthenylated anti-rabbit Fc, streptavidin beads (PBS blank 570)
[2] = biological target: α-fetoprotein (AFP-L1), the non-fucosylated variant of AFP that should not react with Lens culinaris agglutinin A (human) (UniProt P02771); test: Elecsys ECL immunoassay, biotinylated protein 7 nM without pretreatment, antibody 1 µg/mL, ruthenylated anti-rabbit Fc, streptavidin beads (PBS blank 580)

α-fetoprotein (AFP-L1), the non-fucosylated variant of AFP that should not react with Lens culinaris agglutinin A (human), sequence (P02771 19-609 limits assumed, change not shown): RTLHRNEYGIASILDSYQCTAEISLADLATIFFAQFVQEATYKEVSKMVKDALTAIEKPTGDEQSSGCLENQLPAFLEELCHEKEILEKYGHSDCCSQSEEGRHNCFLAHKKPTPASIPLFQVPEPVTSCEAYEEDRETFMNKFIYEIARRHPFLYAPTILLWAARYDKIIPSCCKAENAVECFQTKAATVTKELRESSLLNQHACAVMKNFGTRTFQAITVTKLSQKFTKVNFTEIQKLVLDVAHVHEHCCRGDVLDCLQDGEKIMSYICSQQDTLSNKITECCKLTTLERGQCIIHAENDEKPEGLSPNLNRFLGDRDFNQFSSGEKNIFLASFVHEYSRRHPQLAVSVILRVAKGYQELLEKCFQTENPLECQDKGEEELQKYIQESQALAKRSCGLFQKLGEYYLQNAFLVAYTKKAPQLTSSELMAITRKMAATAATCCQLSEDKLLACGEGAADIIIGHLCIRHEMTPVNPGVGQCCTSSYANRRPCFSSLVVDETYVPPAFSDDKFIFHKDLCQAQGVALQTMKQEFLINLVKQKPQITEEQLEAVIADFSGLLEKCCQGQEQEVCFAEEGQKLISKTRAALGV

Counts [1] [counts]	Counts [2] [counts]	Binder
724	–	mAb<AFP-L3>rRb-3C5-IgG (antibody, V domains shown) VH: QSVEESGGRLVAPGTPLTLTCTVSGIDLSTYGMGWVRQAPGKGLEYIGIIDSGSTYYANWAKGRFTISKTSTTVDLKMTSLTTEDTATYFCARDRDPSSSGYYFKMWGPGTLVTVSL VL: ALVMTQTPSSVSAAVGGTVTINCQASQSIGSYLAWYQQKPGQPPRLLIYGASNLESGVPSRFKGSGSGTEFTLTISDLECDDAATYYCQTAFYIFSSDNAFGGGTEVVVK
–	771	mAb<AFP-L3>rRb-19B12-IgG (antibody, V domains shown) VH: QSVEESGGRLVAPGTPLTLTCTVSGIDLSTYGMGWVRQAPGKGLEWIGIIGDNGSTYYANWAKGRFTISKTSTTVDLKMTSLTTEDTATYFCARDRDPSSSGYYFKMWGPGTLVTVSL VL: ALVMTQTPSSVSAAVGGTVTINCQASQSISSYLAWYQQKPGQPPKLLIFGASNLESGVPSRFKGSGSGTEFTLTISDLECDDAATYYCQTAFYIFSSDNAFGGGTEVVVK
